B1: tissue-type plasminogen activator (tPA) (enzyme, human, UniProt P00750 36-562, looked up)
chain: SYQVICRDEKTQMIYQQHQSWLRPVLRSNRVEYCWCNSGRAQCHSVPVKSCSEPRCFNGGTCQQALYFSDFVCQCPEGFAGKCCEIDTRATCYEDQGISYRGTWSTAESGAECTNWNSSALAQKPYSGRRPDAIRLGLGNHNYCRNPDRDSKPWCYVFKAGKYSSEFCSTPACSEGNSDCYFGNGSAYRGTHSLTESGASCLPWNSMILIGKVYTAQNPSAQALGLGKHNYCRNPDGDAKPWCHVLKNRRLTWEYCDVPSCSTCGLRQYSQPQFRIKGGLFADIASHPWQAAIFAKHRRSPGERFLCGGILISSCWILSAAHCFQERFPPHHLTVILGRTYRVVPGEEEQKFEVEKYIVHKEFDDDTYDNDIALLQLKSDSSRCAQESSVVRTVCLPPADLQLPDWTECELSGYGKHEALSPFYSERLKEAHVRLYPSSRCTSQHLLNRTVTDNMLCAGDTRSGGPQANLHDACQGDSGGPLVCLNDGRMTLVGIISWGLGCGQKDVPGVYTKVTNYLDWIRDNMRP
notes: Full-length recombinant tPA; also called Actilyse; Alteplase
B3: recombinant human β2-glycoprotein I (other, UniProt P02749 20-345, looked up)
chain: GRTCPKPDDLPFSTVVPLKTFYEPGEEITYSCKPGYVSRGGMRKFICPLTGLWPINTLKCTPRVCPFAGILENGAVRYTTFEYPNTISFSCNTGFYLNGADSAKCTEEGKWSPELPVCAPIICPPPSIPTFATLRVYKPSAGNNSLYRDTAVFECLPQHAMFGNDTITCTTHGNWTKLPECREVKCPFPSRPDNGFVNYPAKPTLYYKDKATFGCHDGYSLDGPEEIECTKLGNWSAMPSCKASCKVPVKKATVVYQGERVKIQEKFKNGMLHGDKVSFFCKNKEKKCSYTEDAQCIDGTIEVPKCFKEHSSLAFWKTDASDVKPC
notes: also called recombinant β2GPI; rec. β2GPI
B5: abciximab (ReoPro) (Fab, V domains shown)
VH: EVQLQQSGTVLARPGASVKMSCEASGYTFTNYWMHWVKQRPGQGLEWIGAIYPGNSDTSYIQKFKGKAKLTAVTSTTSVYMELSSLTNEDSAVYYCTLYDGYYVFAYWGQGTLVTVSA
VL: EIVLTQSPVTLSVTPGDSVSLSCRASRDISNNLHWFQQTSHESPRLLIKYASQSMSGIPSRFSGSGSGTDFTLSINSVETEDFGMYFCQQTNSWPYTFGGGTKLEIK
B6: endostatin (EntreMed) (other, UniProt P39060 1572-1754, looked up)
chain: HSHRDFQPVLHLVALNSPLSGGMRGIRGADFQCFQQARAVGLAGTFRAFLSSRLQDLYSIVRRADRAAVPIVNLKDELLFPSWEALFSGSEGPLKPGARIFSFDGKDVLRHPTWPQKSVWHGSDPNGRRLTESYCETWRTEAPSATGQASSLLGGRLLGQSAASCHHAYIVLCIENSFMTASK
notes: also called protein therapeutic endostatin

Assay [1] deals with T1, advanced glycation end-product modified bovine serum albumin (albumin-AGE) (bovine, UniProt P02769 25-607, glycated (advanced glycation end-products; 1 M glucose-6-phosphate, 37 °C, up to 23 weeks); sites not stated).
T1 construct: Misfolded, cross-β structure containing preparation; also called BSA-AGE; glycated BSA
T1 sequence (P02769 25-607 limits assumed): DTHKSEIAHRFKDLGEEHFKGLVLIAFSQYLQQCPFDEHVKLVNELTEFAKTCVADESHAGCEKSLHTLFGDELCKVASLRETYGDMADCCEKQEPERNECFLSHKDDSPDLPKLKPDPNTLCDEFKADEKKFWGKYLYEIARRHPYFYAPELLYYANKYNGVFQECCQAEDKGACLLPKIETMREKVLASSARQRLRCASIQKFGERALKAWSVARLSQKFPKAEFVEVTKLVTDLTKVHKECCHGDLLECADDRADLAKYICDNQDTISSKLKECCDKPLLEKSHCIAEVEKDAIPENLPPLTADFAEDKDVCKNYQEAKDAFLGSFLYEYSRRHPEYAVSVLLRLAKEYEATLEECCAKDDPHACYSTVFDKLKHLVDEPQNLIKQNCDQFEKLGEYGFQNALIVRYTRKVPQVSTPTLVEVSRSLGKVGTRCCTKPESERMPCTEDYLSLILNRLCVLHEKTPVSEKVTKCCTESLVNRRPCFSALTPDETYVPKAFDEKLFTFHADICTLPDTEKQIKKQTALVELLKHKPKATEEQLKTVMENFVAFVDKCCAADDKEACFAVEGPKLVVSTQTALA
As to the kind of experiment: SPR (Biacore), immobilized tPA. The procedure:
EDC, NHS and ethanolamine hydrochloride were obtained from Biacore. […] The flow rate was 10 μl min.⁻¹, the injection time was 120″. The running buffer during immobilization was 10 mM HEPES pH 7.4, 140 mM NaCl. Buffers were filtrated on a 0.22 μm filter (white GSWP, 47 mm, Millipore) and degassed at room temperature. For subsequent binding experiments, the running buffer was 10 mM HEPES pH 7.4, 140 mM NaCl, 1.5 mM CaCl₂, 10 mM εACA, 0.005% Tween-20. […] After each injection of protein, the chip was regenerated with 0.1 M H₃PO₄ pH 1.0.
A general note: SPR reads the build-up and loss of mass on a sensor chip optically.

For the assay “abciximab (ReoPro)”, the target named is B5. As to the kind of experiment: ELISA, therapeutic coated, tPA concentration series, one-site binding fit. The procedure:
(§1) Nunc Immobilizer plates (Nalge Nunc, #436013, Rochester, N.Y., USA) were coated with 50 μL containing 5 μg/mL of sample protein (unless indicated otherwise) in 100 mM NaHCO₃, pH 9.6, 0.05% m/v NaN₃ for 1 hour at room temperature. Plates were washed twice with Tris buffered saline pH 7.2 containing 0.1% Tween20 (TBST) and blocked with PBS containing 1% Tween20 for 1 hour at room temperature. […] Plates were washed five times with TBST and incubated with peroxidase labeled anti-mouse immunoglobulins (RAMPO; DAKOCytomation, Glostrup, Denmark) diluted 1:3000 in PBST for 30 minutes at room temperature. Plates were washed five times with PBS 0.1% Tween20, and stained with 100 μL/well of tetramethyl-benzidine (TMB) substrate (Biosource Europe, Nivelles, Belgium). The reaction was terminated with 50 μL/well of 2 M H₂SO₄ and substrate conversion was read at 450 nm on a Spectramax340 microplate reader. Curves were fitted with a one-site binding model (GraphPad Prism version 4.02 for Windows, Graphpad Software, CA, USA) from which Kd and Bmax were determined.

The next assay has as its target T2, human albumin (Cealb) (human, UniProt P02768 25-609).
T2 construct: mature
Described as above. How it is done: as §1

The target of assay [2] is T3, rapid acting human insulin analogue (NovoRapid Flexpen) (human, UniProt P01308 90-110; P01308 25-54).
T3 construct: mature; also called Insulin Aspart; Novo Rapid insulin
The description is as above. How it is done:
as §1

Assay [3] deals with T4, recombinant human Zn2+-chelated insulin (Monotard) (human, UniProt P01308 90-110; P01308 25-54).
T4 construct: mature; Zinc suspension; also called zinc-insulin; zinc-chelated insulin
The description is as above. The procedure:
as §1

Assay [4] deals with B6. As to the kind of experiment: SPR (Biacore), HGFA F immobilized on CM5 chip. How it is done: (§2) Now, the running buffer was 10 mM HEPES pH 7.4, 140 mM NaCl, 1.5 mM CaCl₂, 10 mM εACA, 0.05% Tween-20. Regeneration buffer was running buffer supplemented with 1 M NaCl.
In assay [5] the target is B3. The assay is described as follows: SPR (Biacore), HGFA F immobilized on CM5 chip. How it is done:
as §2

The target of assay [6] is T5, factor XII purified from human plasma (human, UniProt P00748 20-615).
T5 construct: mature; also called FXII
T5 sequence (looked up): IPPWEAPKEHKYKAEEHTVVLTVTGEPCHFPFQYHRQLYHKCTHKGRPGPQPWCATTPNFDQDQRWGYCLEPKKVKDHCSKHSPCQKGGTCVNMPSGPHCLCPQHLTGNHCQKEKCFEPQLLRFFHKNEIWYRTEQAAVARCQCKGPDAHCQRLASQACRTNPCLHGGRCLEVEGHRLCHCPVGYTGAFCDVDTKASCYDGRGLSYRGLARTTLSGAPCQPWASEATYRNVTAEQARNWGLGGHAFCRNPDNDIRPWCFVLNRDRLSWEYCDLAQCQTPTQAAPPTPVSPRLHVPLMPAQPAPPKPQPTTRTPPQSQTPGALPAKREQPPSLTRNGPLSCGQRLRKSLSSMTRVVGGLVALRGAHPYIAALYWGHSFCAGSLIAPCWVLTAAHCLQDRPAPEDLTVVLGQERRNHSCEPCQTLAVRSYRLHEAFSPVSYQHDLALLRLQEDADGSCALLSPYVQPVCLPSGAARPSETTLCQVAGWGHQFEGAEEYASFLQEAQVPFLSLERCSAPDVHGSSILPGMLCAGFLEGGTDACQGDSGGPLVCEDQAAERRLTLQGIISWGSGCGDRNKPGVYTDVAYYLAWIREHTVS
As to the kind of experiment: ELISA, factor XII immobilized, β2GPI concentration series. The procedure:
(§3) Binding of β₂GPI was assessed with monoclonal antibody 2B2¹³.
(§4) C. […] D. Western blot incubated with anti-human factor XII antibody. […] Eluted fractions are analyzed on Western blot after SDS-PA electrophoresis. […] The molecular mass of factor XII is 80 kDa. […] Anti-β₂GPI auto-antibodies were purified from plasma of patients with the auto-immune disease Anti-phospholipid syndrome. […] Signals are corrected for background fluorescence of CL, DXS, ThT and buffer.
On the technique in general: In an ELISA, binding on a coated surface is turned into a signal by an enzyme label.

In assay [7] the target is B1. As to the kind of experiment: ELISA, tPA coated, β2GPI concentration series, antibody 2B2. How it is done:
as §3, §4

For assay [8], the target named is T6, fibronectin F4-5 domains with carboxy-terminal His6-tag, expressed in S. cerevisiae (Fn F4-5-His6) (human, UniProt P02751 182-276).
T6 construct: range 182-276; also called Fn F4-5 doublet
T6 sequence (P02751 other isoform, or with tags, fused parts or gaps limits assumed): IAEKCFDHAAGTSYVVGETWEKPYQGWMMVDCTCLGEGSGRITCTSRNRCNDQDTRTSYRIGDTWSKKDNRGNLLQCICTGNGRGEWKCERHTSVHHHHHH
The assay is described as follows: SPR (Biacore), Fn F4-5 on CM5 chip, concentration of ligand at half maximum binding. How it is done: as §2

Assay [9] deals with T5, factor XII purified from human plasma. As to the kind of experiment: ELISA, factor XII coated, β2GPI concentration series, antibody 2B2. How it is done:
as §3, §4

In assay [10] the target is B1. As to the kind of experiment: ELISA, tPA immobilized, β2GPI concentration series. The procedure:
as §3, §4

Assay [11] concerns the target B6. The assay is described as follows: SPR (Biacore), tPA F immobilized on CM5 chip. The procedure:
as §2

Assay [12] addresses B3. As to the kind of experiment: SPR (Biacore), tPA F immobilized on CM5 chip. The procedure:
as §2

In assay [13] the target is B1. The assay is described as follows: cell-based or functional assay.
For assay [14], the target named is B1. As to the kind of experiment: ELISA, therapeutic coated, tPA concentration series, one-site binding fit. How it is done:
as §1

Ends that are not written are not given here.

As to B1, in [1], the binding result is reported as “binds”. The “Bmax (OD450 nm)” value in the assay with abciximab (ReoPro) came to 0.533 OD450 nm; in the assay with human albumin (Cealb), 1.23 OD450 nm; in assay [2], 3.62 OD450 nm; in [3] it was 0.756 OD450 nm.

B2: chemically synthesized F domain of hepatocyte growth factor activator (HGFA F) (other)
chain: EKCFDETRYEYLEGGDRWARVRQGHVEQCECFGGRTWCEGTK
modifications: added carboxy-terminal lysine residue is acetylated
notes: domain: F domain; Made by native chemical ligation of two peptides; also called HGFA F domain
For the molecule B2, the binding result is reported as “no binding (tested: 0-800 nM)” with endostatin (EntreMed) [4] and “no binding (tested: 0-300 nM)” in assay [5].
B3: the Kd (commonly a measure of binding affinity in units of concentration) stood at 0.9 µg/mL in assay [6], 51 nM in assay [7], 20 nM in [9] and 2.3 µg/mL in assay [10]. For the same molecule, the 50% effective concentration (EC50) (usually the concentration that produces a half-maximal response) in assay [8] is 165 nM.

B4: chemically synthesized F domain of tPA (tPA F) (other, human)
chain: VICRDEKTQMIYQQHQSWLRPVLRSNRVEYCWCNSGRAQCHSVK
modifications: cysteine pairing not given here; also: added C-terminal Lys acetylated or biotinylated
notes: domain: F domain; Immobilized on the second Biacore chip; also called tPA F domain
Take B4: the binding result in the assay with endostatin (EntreMed) [11] is on record as “no binding (tested: 0-800 nM)”; in assay [12], “no binding (tested: 0-300 nM)”.
On to B5, for which the “tPA activation, Max. Activation (%)” value in assay [13] stood at 0%. In assay [14], this molecule displayed a Kd of 216 nM.
Consider B6, for which the EC50 in [8] came out at 800 nM.

These data come from patent publication US20080207488A1 (published 2008).
